In patent publication US7611713:
Read-outs that look alike come from different tables or passages of the source.

Key:
HLA-A*0201 (human) [1] = target: HLA-A*0201 (human)
[2] = target: HLA-DR7 (DRB1*0701) (human); experiment: competition with standard peptide for purified HLA-DR, relative to standard
HLA-B*0702 (human) = experiment: competition with radiolabeled standard peptide for purified HLA, gel filtration
HLA-B*5101 (human) = experiment: as above; conditions: remark: other sources report otherwise
HLA-B*5401 (human) = experiment: as above; conditions: remark: other sources report otherwise
[3] = target: HLA-DR1 (DRB1*0101) (human); experiment: competition with standard peptide for purified HLA-DR, relative to standard
[4] = target: HLA-DR5w11 (DRB1*1101) (human); experiment: as above
[5] = target: HLA-DRw53 (DRB4*0101) (human); experiment: as above
HLA-A*1101 (human) [6] = target: HLA-A*1101 (human)
HLA-A*0201 (human) [7] = experiment: competitive inhibition of radiolabeled standard peptide binding to purified HLA
[8] = target: HLA-DR2w2β1 (DRB1*1501) (human)
[9] = target: HLA-DR7 (DRB1*0701) (human)
HLA-A*1101 (human) [10] = target: HLA-A*1101 (human); remark: listed apart in the source
[11] = target: HLA-DR2w2β1 (DRB1*1501) (human); experiment: HLA class II peptide binding assay, ratio to standard peptide
[12] = target: HLA-DR3 (DRB1*0301) (human); experiment: as above; conditions: remark: other sources report otherwise
[13] = target: HLA-DR4w15 (DRB1*0405) (human); experiment: as above; conditions: remark: other sources report otherwise
[14] = target: HLA-DR5w11 (DRB1*1101) (human); experiment: as above; conditions: remark: other sources report otherwise
[15] = target: HLA-DR6w19 (DRB1*1302) (human); experiment: as above; conditions: remark: other sources report otherwise
[16] = target: HLA-DR7 (DRB1*0701) (human); experiment: as above; conditions: remark: other sources report otherwise
[17] = target: HLA-DR1 (DRB1*0101) (human); experiment: as above; conditions: remark: other sources report otherwise
[18] = target: HLA-DR1 (DRB1*0101) (human)
[19] = target: HLA-DR5w11 (DRB1*1101) (human)
[20] = target: HLA-DR4w4 (DRB1*0401) (human); experiment: competition with standard peptide for purified HLA-DR, relative to standard
[21] = target: HLA-DR4w4 (DRB1*0401) (human); experiment: HLA class II peptide binding assay, ratio to standard peptide; conditions: remark: other sources report otherwise
[22] = target: HLA-B*0701 (as printed in the head of Table XXII) (human); experiment: competitive inhibition of radiolabeled standard peptide binding to purified HLA
[23] = target: HLA-DR2w2β2 (DRB5*0101) (human)
[24] = target: HLA-DR6w19 (DRB1*1302) (human)
[25] = remark: other sources report otherwise

QLLWFHISCL (modifications not checked) [HBV NUC 99 peptide … (peptide 1142.03)]
binding affinity ratio (IC50 of standard peptide / IC50 of test peptide) (HLA-A*0201 (human) [1]): 0.006

DLNLGNLNVSIPWTH (modifications not checked)
binding affinity ratio (IC50 of standard peptide / IC50 of test peptide) [2]: 0.001

LLDTASALYR (modifications not checked) [HBV NUC 30 peptide …]
binding affinity ratio (IC50 of standard peptide / IC50 of test peptide) (HLA-A*0301 (human)): 0.005

WPKFAVPNL (modifications not checked) [HBV POL 393 peptide …]
binding affinity ratio (IC50 of standard peptide / IC50 of test peptide) (HLA-B*0702 (human); [25]): 0.0054 | binding affinity ratio (IC50 of standard peptide / IC50 of test peptide) (HLA-B*5101 (human)): 0.0016 | binding affinity ratio (IC50 of standard peptide / IC50 of test peptide) (HLA-B*5401 (human)): 0.0015

SVRFSWLSLL (modifications not checked) [HBV ENV 330 peptide …]
binding affinity ratio (IC50 of standard peptide / IC50 of test peptide) (HLA-A*0201 (human) [1]): 0.0004

ASKLCLGWLWGMDID (modifications not checked)
binding affinity ratio (IC50 of standard peptide / IC50 of test peptide) [3]: 0.0002 | binding affinity ratio (IC50 of standard peptide / IC50 of test peptide) [4]: -0.0002 | binding affinity ratio (IC50 of standard peptide / IC50 of test peptide) [5]: 0.001

LLDYQGML (modifications not checked) [HBV ENV 260 peptide LLDYQGML]
binding affinity ratio (relative to standard peptide) (HLA-A*0201 (human) [1]): 0.0004

TTVVRRRGR (modifications not checked) [HBV NUC 175 peptide …]
binding affinity ratio (IC50 of standard peptide / IC50 of test peptide) (HLA-A*1101 (human) [6]): 0.0005 | binding affinity ratio (IC50 of standard peptide / IC50 of test peptide) (HLA-A*3101 (human)): 0.25 | binding affinity ratio (IC50 of standard peptide / IC50 of test peptide) (HLA-A*3301 (human)): 0.14 | binding affinity ratio (IC50 of standard peptide / IC50 of test peptide) (HLA-A*6801 (human)): 0.0095

LLVLQAGFF (modifications not checked) [HBV ENV 175 peptide …]
binding affinity ratio (IC50 of standard peptide / IC50 of test peptide) (HLA-A*0301 (human)): 0.0006

YVPSALNPA (modifications not checked) [HBV POL 768 peptide …]
binding affinity ratio (IC50 of standard peptide / IC50 of test peptide) (HLA-A*0201 (human) [7]): 0.0039

VGNFTGLYSSTVPVF (modifications not checked)
binding affinity ratio (IC50 of standard peptide / IC50 of test peptide) [8]: 0.01 | binding affinity ratio (IC50 of standard peptide / IC50 of test peptide) [9, 25]: 0.56

LDTASALYR (modifications not checked) [HBV NUC 60 peptide …]
binding affinity ratio (IC50 of standard peptide / IC50 of test peptide) (HLA-A*1101 (human) [10]): -0.0002

LSFLPSDFF (modifications not checked) [HBV NUC 45 peptide …]
binding affinity ratio (IC50 of standard peptide / IC50 of test peptide) (HLA-A*0301 (human)): 0.0006

VPNLQSLTNL (modifications not checked) [HBV POL 398 peptide …]
binding affinity ratio (IC50 of standard peptide / IC50 of test peptide) (HLA-B*0702 (human)): 0.0006

LLGCAANWI (modifications not checked) [HBV POL 752 peptide …]
binding affinity ratio (relative to standard peptide) (HLA-A*0201 (human) [1]): 0.0011

LAQFTSAICSVVRRA (modifications not checked)
binding affinity ratio (IC50 of standard peptide / IC50 of test peptide) [11]: 0.0065 | binding affinity ratio (IC50 of standard peptide / IC50 of test peptide) [12]: -0.0009 | binding affinity ratio (IC50 of standard peptide / IC50 of test peptide) [13]: 0.028 | binding affinity ratio (IC50 of standard peptide / IC50 of test peptide) [14]: 0.0076 | binding affinity ratio (IC50 of standard peptide / IC50 of test peptide) [15]: 0.001 | binding affinity ratio (IC50 of standard peptide / IC50 of test peptide) [16]: 0.028

PLPIHTAELLAACFA (modifications not checked)
binding affinity ratio (IC50 of standard peptide / IC50 of test peptide) [17]: 0.0046 | binding affinity ratio (IC50 of standard peptide / IC50 of test peptide) [16]: -0.0003

RDLLDTASALYREAL (modifications not checked)
binding affinity ratio (IC50 of standard peptide / IC50 of test peptide) [18, 25]: 0.0001 | binding affinity ratio (IC50 of standard peptide / IC50 of test peptide) [9, 25]: 0.077

WPKFAVPNLQSLTNL (modifications not checked)
binding affinity ratio (IC50 of standard peptide / IC50 of test peptide) [18]: 0.0007 | binding affinity ratio (IC50 of standard peptide / IC50 of test peptide) [19]: 0.0002 | binding affinity ratio (IC50 of standard peptide / IC50 of test peptide) [9]: 0.0008

VLGGCRHK (modifications not checked) [HBV X 133 peptide VLGGCRHK]
binding affinity ratio (IC50 of standard peptide / IC50 of test peptide) (HLA-A*3101 (human)): -0.0005 | binding affinity ratio (IC50 of standard peptide / IC50 of test peptide) (HLA-A*3301 (human)): -0.0009

STLPETTVV (modifications not checked) [HBV NUC 141 peptide …]
binding affinity ratio (IC50 of standard peptide / IC50 of test peptide) (HLA-A*0201 (human) [1]): 0.0019

RVTGGVFLV (modifications not checked) [HBV POL 357 peptide …]
binding affinity ratio (IC50 of standard peptide / IC50 of test peptide) (HLA-A*0201 (human) [1]; [25]): 0.0041

LIFLLVLL (modifications not checked) [HBV ENV 254 peptide LIFLLVLL]
binding affinity ratio (relative to standard peptide) (HLA-A*0201 (human) [1]): 0.0025

IVGLLGFAAPFTQCG (modifications not checked)
binding affinity ratio (IC50 of standard peptide / IC50 of test peptide) [3]: 0.02 | binding affinity ratio (IC50 of standard peptide / IC50 of test peptide) [20]: -0.0007 | binding affinity ratio (IC50 of standard peptide / IC50 of test peptide) [4]: -0.0002 | binding affinity ratio (IC50 of standard peptide / IC50 of test peptide) [2]: 0.0009

ILRGTSFVY (modifications not checked) [HBV POL 771 peptide …]
binding affinity ratio (IC50 of standard peptide / IC50 of test peptide) (HLA-A*0301 (human); [25]): 0.044

DSWWTSLNF (modifications not checked) [HBV ENV 207 … (peptide 20.0120)]
binding affinity ratio (HLA-A*0301 (human)): 0.0006

NAPILSTLPETTVVR (modifications not checked)
binding affinity ratio (IC50 of standard peptide / IC50 of test peptide) [17]: 0.0009 | binding affinity ratio (IC50 of standard peptide / IC50 of test peptide) [21]: -0.0007 | binding affinity ratio (IC50 of standard peptide / IC50 of test peptide) [14]: -0.0002 | binding affinity ratio (IC50 of standard peptide / IC50 of test peptide) [16]: 0.0005

MPKAGLLII (modifications not checked) [MAGE3 196]
IC50 [22]: 940 nM

KAGILYKR (modifications not checked) [HBV POL 153 peptide KAGILYKR]
binding affinity ratio (IC50 of standard peptide / IC50 of test peptide) (HLA-A*1101 (human) [10]): -0.0002

SLNFMGYVI (modifications not checked) [HBV POL 581 peptide …]
binding affinity ratio (IC50 of standard peptide / IC50 of test peptide) (HLA-A*0201 (human) [1]): 0.0038

HLNPNKTKR (modifications not checked) [HBV POL 569 peptide …]
binding affinity ratio (IC50 of standard peptide / IC50 of test peptide) (HLA-A*0301 (human)): 0.0025

AEDLNLGNLNVSIPW (modifications not checked)
binding affinity ratio (IC50 of standard peptide / IC50 of test peptide) [3]: 0.0001 | binding affinity ratio (IC50 of standard peptide / IC50 of test peptide) [20]: -0.0007 | binding affinity ratio (IC50 of standard peptide / IC50 of test peptide) [4]: -0.0002 | binding affinity ratio (IC50 of standard peptide / IC50 of test peptide) [2]: -0.0003

VGLLGFAAPFTQCGY (modifications not checked)
binding affinity ratio (IC50 of standard peptide / IC50 of test peptide) [23]: 0.0008 | binding affinity ratio (IC50 of standard peptide / IC50 of test peptide) [19]: -0.0004 | binding affinity ratio (IC50 of standard peptide / IC50 of test peptide) [24]: -0.0001
